Experiment: label from the status in PepcDB records
In the case of “MNSPANITDPLVLFMPSGKRGRFPVGTPVLDAARQLGVYVESVCGGRATCGRCQIEVQEGNFAKHKIVSSNDHISPKGPKEERYERVRGLPERRRLSCSAQILGDLVIDVPQDTVINAQTIRKDADTRVIARDTAIRMCYVEIEEPDMHKPLGDLDRLKIALMKDWGFKNLEFDFYLLPQVQGILRKGNWTATAAIHKDADSDIARVIALWPGLKNEAYGLACDIGSTTIAMHLVSLLSGRVAASSGTSNPQIRFGEDLMSRVSYVMMNPDGREGMTVAVREAISSLVDKVCAEGNVQRNDILDSVFVGNPIMHHLFLGIDPTELGGAPFALAVSGAVRIKASDIGLKLNQGARLYMLPCIAGHVGADAAAVTLSEGPHRQDEMMLIVDVGTNAEIVLGNRARVVAASSPTGPAFEGAEISGGQRAAPGAIERVRIDPDTLEPKYRVIGSELWSDEPGFLDSVQATGVTGICGSGIIEIVAEMYLAGIISEDGVVDGSLAARSPRVTANGRTFSYVLKEGEPKITITQTDVRAIQLAKAALYAGTKLLMEKQNTEHVDRIHFAGAFGSFIDPKYAMVLGLIPDCDLDKVSAVGNAAGAGARMALLNRGYRREIEETVSQIEKIETALEPKFQEHFVYAMALPNKVDPFPKLSAAVKLPPRKTVSEDGIAGDATPRRRSREGHAARRSRE”, the protein production is reported as “failed”.
For “MNSQPRHFAPLARLLHWLMALLIIAMLFIGAGMVASVSARHEWLIHLHKPLGIAILLLVLVRLWVRFYTRQPPLPADLPGWQVLAAKASHVLLYALMLSLPLLGWGMISAAGDPVMLGSSLQLPAILPANAQLFAVLRKAHGYLAYLLFFTVLLHLAAALFHGWVRRDGVLQSMLRGRG”, the protein production was “not failed”.
For “MNSRLGTTASSITRSALPTTVVWDPAMTAYNFGPGHPMAPQRLELTARLAESLGLFNHNHVAVEAPTVATDVELFSVHSRDYVEAVRRVSADPSAPEEERGLGTEDDPAFAGMHEASARLAGGSLLAAETILSGQAVRAVNFSGGMHHAARERASGFCVYNDVALAIQKLLDGGVQRVVSIDVDAHHGDGTQSIFWNDPRVMTISLHETGLTLFPGTGFANETGGPDAPGTAVNVALPAFTGDAAWLRAFHAVVPQLVGAFQPEVIVSQHGCDSHRDDPLTHLNLSVDGQREAASAVAGLAARYCDNRWIATGGGGYDVTGVVPRAWSHLIGMVTQRPVPLKTPVPEAWRSYVKETYGVWAPESMSDDVDVWWRSWEVGYNPADEVDRTVIATRKEIFPLYGLDPWFD”, the protein production was “failed”.
In the case of “MNSYDETVQDIITAVGGKDNIEEVFHCVARLRFYLKDSTQLNKTILQKNSNIYDFKFENNQLQILIGSDVNKYYKALMKCINEDKDFSKAKKGNIKMSKSSDKDKQLAEQIVKLVGGKENVNSLIHCVTRLRFKLKDESKADDEAIKNLHGVMGVAHAGGQYQVIIGNNVTDIYDQVMPLLGLSSEQEVTQDDEKEGNIFSRLVALISSLFMPLLGVMTGAGMLKGLLVLFGVLGWVKQGTGTYMILNAAADALFYFLPILLGFTAGKTFKINPFVGAVTGGALVYPSMVAAATAHKAITFLGIPVNLMNYSQTMLPIVIAIWGMSWLEKGTKKIIPSSVRNLFVPLLDLMIVVPLAYIIIGPIMQTLSQWLSEASLWIYGILPVAAGFIIGGIWQGAVILGLHWAFIPVLMNNLMTNHFDPINGIMYCTLFGQVGACFAMGLKAKDKNFKEIAIPAAISGLVGITEPIIYGVTLPHKKAFAFASVGSAFGGAIAAACHAGMYTMPGGGIFGIPAFINPKGINMQFYGFLISLLVAIVVSFVLTMIFGDTVVPSAPKAKVQVKKAEFKDQAIYSPLEGTVVELKDVKDPVFSAGTIGKGIAVKPTNNEVRAPFDGKVISVFPTKHAIGLKSENGVELLIHLGIDTVNLQGKYFDSMVKDGQEIKKGDLIEKFDVQAIQEAGYDTVVPIVVTNSNNFDDVISEKKNGDKVNFGDQLLMATVEQDVNVQDSSIAKA”, the protein production is reported as “failed”.
In the case of “MNTEPANVEDKLPMNILVLGSDEKQGGRSDTIMLVHIQKDFQPIVISIPRDTRVKVEGIKGYSKINAAYAYGKSKLAVKTVEDILGIKIDKYVVVNYEAVEKIVDLVGGVDVEVPFHLYYVDTTPGKELYINIPAGLQHLDGKKAVEFLRWRHNSNGKEYGRGGDLGRIEMQRKLLYALIEKMLKPQNIVRLPLIVQTVSKYTDHNFTKNEIMWFIQNVGKFNTQNIMMTILPGYPKYIDRVSYYILNEEKCRALIDDLNEPEVLKDSMKIKILSKSFDDKATQLKNDLESKGYSNVNLGRVSKLESSEVELKRVNRKYLELLKNDIDLSTYQVVYSPDYSDKFDVYIKVKLEHHHHHH”, the protein production is reported as “not failed”.
With “MNTHYVGPVLYTPKENVSEKLLKLFDADQPIIFCYTARFYDNVGESGKAIFDNMIKIADKIDASIIISTGNKKDELLALDIASKELKSGKVSIVDYVPLDMAYEKSDLVIHHGGHGSCLAQFYYGVPSVIIPTHTEREYNARMCEKLHVGKMLPRRELNSANLKNCINDVLNDITYKKSVRDWKEKVSGLEHHHHHH” the protein production was “failed”.
In the case of “MNTLLLTAGRVLLALYFLIPGIMKFVSWDMHIQLMEKHEMPFVPVLLGLAGVFQIGAAILLIANRFTWIVALLLAGLVLVINVSLHDFWNYSGMEGAHEMQNFIKNLGIFAGLLVLSGHSMPECCKTKKKS”, the protein production is reported as “failed”.
For “MNTMEEKYILSDRGKVYYWIKESNSVFAKNLIFLPGLTANHHLFDFQIQYFSKNHNVLVWDAPAHGKSRPYLDFSYSNLVEELKVILDKQNMKKVVLIGQSAGGFVAQSFIVKYPNMVEGLMMIGTCPYGTDYYSKSDIFWLKQTEWMLKLFPDKLLRNIISKMCGATSEGRRSMLKMLEGYEKKELCHLMYLGFAGFIPEIQDLNIHCPVCLVVGDKDKTGKVRKYNEQWHNKTGYPLHIIKNASHNVNVDKPNELNQIMDIFIKQLN”, the protein production was “not failed”.
For “MNTSCTSYHSMALSESQRDILGMIATNHQLHDILTAICLMIDAQDPGTLCSILLTDAQGKHLLKGAAPGLPPAYSDAIHGLPIGPQEGTCGTAAFRRELVVTADIARDPSWERFRSLALGYNLRSCWSLPLLSHEGSVLGTFALYQDQAIAPSEVQIHRLTCAAQLAAIAIRH”, the protein production was “failed”.
For “MNTSGIGGYFRQGLFGRDLLASVVVFLVALPLCMGIAIASGMPPAAGLITGIVGGLVVGFLAGSPLQVSGPAAGLAVLVFELVREHGAVALGPVILVAGAIQLIAGLCRAGVWFRMTSPAVVAGMLSGIGILIVASQAHVLMDAAPKARGLENFAALPGVLWQAISEGTGRNALFVGLATIGIILAWDKLRPQRLRFLPGALIAVVVVTATVQLQGLNVNKVDVPTNLFSAISIPSISDIFGVFNHTLLVSAVTFAFIASAETLLSAAAVDRMHQGARTQYDRELAAQGVGNMLCGFLGALPMTGVIVRSAANVQAGAATRASTILHGSWLLVFAMLLPWLLRMTPVACLAGILVYTGVKMIKIGQVKELATYGRGTAAIYLATTFAIVATDLLTGVLIGFGLSLFRLALHSSRLKVEVREHADKKDEMHLTLQGSATFLKVPAMARTLESVPPNTALHLDVAKLHHVDHACIELLRDWSRNAASRGCELVVDWKELDRRVEGQPTVDGVLVEQRVEQAKAA”, the protein production was “failed”.
With “MNTSHVRVVTHMCGFLVWLYSLSMLPPMVVALFYKEKSLFVFFITFVIFFCIGGGAWYTTKKSGIQLRTRDGFIIIVMFWILFSVISAFPLWIDSELNLTFIDALFEGVSGITTTGATVIDDVSSLPRAYLYYRSQLNFIGGLGVIVLAVAVLPLLGIGGAKLYQSEMPGPFKDDKLTPRLADTSRTLWITYSLLGIACIVCYRLAGMPLFDAICHGISTVSLGGFSTHSESIGYFNNYLVELVAGSFSLLSAFNFTLWYIVISRKTIKPLIRDIELRFFLLIALGVIIVTSFQVWHIGMYDLHGSFIHSFFLASSMLTDNGLATQDYASWPTHTIVFLLLSSFFGGCIGSTCGGIKSLRFLILFKQSKHEINQLSHPRALLSVNVGGKIVTDRVMRSVWSFFFLYTLFTVFFILVLNGMGYDFLTSFATVAACINNMGLGFGATASSFGVLNDIAKCLMCIAMILGRLEIYPVIILFSGFFWRS” the protein production was “failed”.
With “MNTTEFDGISHAEGLCDKEFIGKAISYLYRYGQIYIGKKIEPYGIGSGQFPFLMRLYREDGINQESLSDYLKIDKGTTARAIQKLVDEGYVFRQRDEKDRRSYRVFLTEKGKKLEPDMKKIASEWGEILFSSFDDRQRREITNSLEIMFENGLKIM” the protein production was “not failed”.
In the case of “MNTTKRILILLLLALITGCAMHTTRNPSFLEGKRLIAEGRLEEGLGKLEQAAREEPDDREVGATLARERDTIIGQILFEADNARLAGNLDQAEQNYQRVLNIRASSERAREGLDAVDLERRHIVLVNQAKEALAHGDVDGAEKIVRGVLADNPMQSEARQLIKALSEQIARAEMSELSLITEFSKPITMEFRDTSLKTMFELISRTAGINFVFDRNVQQEATASIFVRDNSIEDVLKLMLLTNQLAYKVLNSNTLLIYPDTPAKQKDYQELVVRSFHVANTDVKQMVAMIRGLVKARDIYVNEKLNLFVIRDTLEMIRLVERLVAINDFPDPEVMLDVVVLEVKRDSTLDLGPNMPTSVTFSAVPGIGTPAQAAADSVVKMSMIKNTGFEGLRSFTISNQARIDFGRTLTNADVLANPRIRVKSREKAKIHIGNKEPVFTVTNTANVGSAASATYIDVGLKFEVEPVVRTNNEVTLKALLEVSSNLGEKRSGSGENAATAIVIGTRTAETVLELRDGETQVLAGLIQDDLSRVRSGIAGLTDIPVLGDIFSKQVRKHNKTEIILLITPHIVRNVIQPNHFESEFYSGTASAAGKLPVTIRKTAPRSLAMESSNSASDGGYMSLGRARSAGLFGAAPDLFEEAVTQAREASPSLTLRVPESVAGGREFTATVRLVTQDPMLSGELNLTYDPDTLELVDGGEKSGMRSLKLGRDQSTGMTAVLRFKVISTNATSTEIALQNLQVRDETGQPVEVNLPPAASIRIQ”, the protein production is reported as “failed”.
With “MNTTLFRWPVRVYYEDTDAGGVVYHASYVAFYERARTEMLRHHHFSQQALMAERVAFVVRKMTVEYYAPARLDDMLEIQTEITSMRGTSLVFTQRIVNAENTLLNEAEVLVVCVDPLKMKPRALPKSIVAEFKQ” the protein production was “not failed”.
With “MNVDFINPFLDSLLNVLKTMANMELKPGKPNLKKDNLAKGDVSGLIGMVGPQTKGSLSITFEETLILEIMNKMLGEKPESIDEEVTDLVGELTNMVTGGAKNLLSDKGYEFDMATPIVVSGKNHTIAHKSDGQKIIMPFSSIYGTAYIEICFEG” the protein production was “not failed”.
With “MNVLRPTLLTLACLLASPGFADDLPSLGDASSAIVSPQQEYQLGRAWLALLRSQVSQLNDPQLKDYVETSVYKLVETSQVNDRRLEFILINSPQLNAFAAPGGIIGVNGGLFLNAQTEGEYASVLAHELAHLSQRHFARGVEAQQRMQVPMMAALLAGIVIAAAGAGDAGIATIAGTQAAAIQEQRRFSRQNEQEADRIGILNLEKAGYDPRSMPTMFERLMRQYRFDAKPPEFLLTHPVTESRIADTRNRAEQARQGGTEDSLRYQLIRARVQLTYEESPGLAAKRFRAQLDENPKNDIARYGLAIAQIKGSQWNEARENLKPLLAKSPNDVTYNLAQIELDMANSRLPDAQTRVERMLNLYPGNYPLNQIRVDLLLKQNRPADAEKALEGLLKSRPDDPDVWYLVAETRGLSGNIIGLHQARAEYFALVGDYRQAIQQLDFAKRRAGSNFPLSSRIDARQREMMDQEQMVKDMMRLEHHHHHH” the protein production was “not failed”.
In the case of “MNVMRHSWLAVAGIAGLLAFPPVDACTLWGAAGTASMEGSLLAKNRDWKPDHAQSLRLLHPEHGYAYLGLYADNGSEPGIKAGVNQKGLAVVAAEASSLPRALRADSARHGVLTRLLRDYGSLDEVASAADKLFAQARPVFLLLADAGGLMQVEIGQHGRYRLIRQQSGTLAHTNHYADTSLLDGAQTIGPSSQARLERIRFLLDQHPAHTLSEFERLSRDRHDGPDNSLWRSGREHTLAGWRIALPAGAPPRLQLTLANPGRAERDGDYALDSAFWAQPARTLLPLEHHHHHH”, the protein production is reported as “not failed”.

From a protein production outcome set (Wang et al. 2014)
